B1: Δ1-24_PTX3 (PTX3 truncation mutant with residues 1-24 of the mature protein deleted) (domain or fragment, human)
chain: ELEDPTPCACGQEHSEWDKLFIMLENSQMRERMLLQATDDVLRGELQRLREELGRLAESLARPCAPGAPAEARLTSALDELLQATRDAGRRLARMEGAEAQRPEEAGRALAAVLEELRQTRADLHAVQGWAARSWLPAGCETAILFPMRSKKIFGSVHPVRPMRLESFSACIWVKATDVLNKTILFSYGTKRNPYEIQLYLSYQSIVFVVGGEENKLVAEAMVSLGRWTHLCGTWNSEEGLTSLWVNGELAATTVEMATGHIVPEGGILQIGQEKNGCCVGGGFDETLAFSGRLTGFNIWDSVLSNEEIRETGGAESCHIRGNIVGWGVTEIQPHGGAQYVS
modifications: N-linked glycan at N220
B2: C-terminal pentraxin domain of human PTX3 (domain or fragment)
chain: ELEGCETAILFPMRSKKIFGSVHPVRPMRLESFSACIWVKATDVLNKTILFSYGTKRNPYEIQLYLSYQSIVFVVGGEENKLVAEAMVSLGRWTHLCGTWNSEEGLTSLWVNGELAATTVEMATGHIVPEGGILQIGQEKNGCCVGGGFDETLAFSGRLTGFNIWDSVLSNEEIRETGGAESCHIRGNIVGWGVTEIQPHGGAQYVS
modifications: N-linked glycan at N220

Experiments:
SEC-SAXS = target: the molecule itself; experiment: SEC-SAXS
crystal structure = target: the molecule itself; experiment: crystal structure

Protein | binding result (SEC-SAXS) | binding result (crystal structure)
B1 | binds | –
B2 | – | binds
